From PMC6098157

Biological target: TIR1 (transport inhibitor response 1), codon-optimized rice TIR1 (rice)

GFP-PCNA left at 22 hpf in zebrafish retinal neuroepithelium cells expressing TIR1 and mAID-nanobody, with 0.5 mM IAA as the bridging auxin (% of original GFP-PCNA levels): < 20
GFP-PCNA left at 22 hpf in zebrafish retinal neuroepithelium cells expressing TIR1 and mAID-nanobody, with 0.5 mM NAA as the bridging auxin (% of original GFP-PCNA levels): 12
B1: mAID^K→R-vhhGFP4^K→R (lysine-less mAID-nanobody) (VHH)
chain: ACPRDPARPPARAQVVGWPPVRSYRRNVMVSCQRSSGGPEAAAFVRVSMDGAPYLRRIDLRMYRMDQVQLVESGGALVQPGGSLRLSCAASGFPVNRYSMRWYRQAPGREREWVAGMSSAGDRSSYEDSVRGRFTISRDDARNTVYLQMNSLRPEDTAVYYCNVNVGFEYWGQGTQVTVSS
